Data taken from patent US20030165489A1.

Tests used:
[1] = biological target: SP (substance P) (UniProt P20366); experiment: cell-based or functional assay
[2] = biological target: T1, SP (substance P) (UniProt P20366)
T1 sequence: RPKPQQFFGLM

Row | Substance | diminution of SP-evoked vasodilatory response (100 pg SP, pig in vivo, after 50 µg DPPIV) [1] [%] | diminution of SP-evoked vasodilatory response (1 ng SP, pig in vivo, after 50 µg DPPIV) [1] [%] | degradation of SP identified by mass-spectrometry [2]
1 | Recombinant dipeptidyl peptidase IV (DPPIV), soluble form secreted from Aspergilus Fumigatus (enzyme) | 66 | 71 | –
2 | Recombinant dipeptidyl peptidase IV (DPPIV), soluble form secreted from Aspergilus Fumigatus | – | – | SP (1.8 µg) co-incubated with 0.016 µg of DPPIV for ten minutes at 37 °C is degraded to SP5-11
